# Data taken from patent EP4480961A1 (Consejo Superior De Investigaciones Científicas, dated 2024).
# Changes are numbered by the printed parent chain.
# B1: DBP1-L1 chimeric protein (designed binder)
# chain: MADLPQKVSNLSINNKENGGGGGKSSYVPPHLRSRGKPSFERRSPKQKDKVTGGDFFRRAGRQTGNNGGFFGFSKERNGGTSANYNRRGSSNYKSSGNRWVNGKHIPGPKNAKLQKAELFGVHDDPDYHSSGIKFDNYDNIPVDASGKDVPEPILGGRTRGGGGFFNSRNNGSRDYRKHGGNGSFGSTRPRNTGTSNWGSIGGGFRNDNEKNGYGNSNASWWGSATVKFTYQGEEKQVDISKIKMVIRMGQMILFTYDEGGGAMGRGIVSEKDAPKELLQMLEKQ
# notes: Biotinylated and immobilised on streptavidin tips for BLI; biotinylated for microscopy and flow cytometry
# B2: DBP1-L2 chimeric protein (designed binder)
# chain: B1 chain with M245Y, M249F, M252K, L254M, T256K, M264H, R266S, I268M
# notes: Biotinylated and immobilised on streptavidin tips for BLI
# B3: mHP1α-L1 chimeric protein (designed binder)
# chain: MGKKTKRTADSSSSEDEEEYVVEKVLDRRMVKGQVEYLLKWKGFSEEHNTWEPEKNLDCPELISEFMKKYKKMKEGENNKPREKSEGNKRKSSFSNSADDIKSKKKREQSNDIARGFERGLEPEKIIGATDSCGDLMFLMKWKDTDEADLVLAKEANVKCPQIVIAFYEERLTWHAYPEDAENKEKESAKSGSATVKFTYQGEEKQVDISKIKMVIRMGQMILFTYDEGGGAMGRGIVSEKDAPKELLQMLEKQ
# notes: also called mHP1-L1
# B4: mHP1α-R2 chimeric protein (designed binder)
# chain: B3 chain with I216M, M218N, M221R, L223R, T225M, M233I, R235L, I237E
# notes: also called mHP1-R2
# B5: mHP1α-L2 chimeric protein (designed binder)
# chain: B3 chain with M214Y, M218F, M221K, L223M, T225K, M233H, R235S, I237M
# notes: Biotinylated for flow cytometry
# B6: L2 engineered rcSso7d binder (designed binder)
# chain: ATVKFTYQGEEKQVDISKIKYVIRFGQKIMFKYDEGGGAHGSGMVSEKDAPKELLQMLEKQ
# notes: also called clone L2
# B7: L1 engineered rcSso7d binder (designed binder)
# chain: ATVKFTYQGEEKQVDISKIKMVIRMGQMILFTYDEGGGAMGRGIVSEKDAPKELLQMLEKQ
# notes: also called clone L1
# How the values were obtained:
# [1] = target: T1, soluble recombinant OmpF (outer membrane porin F) from Yersinia ruckeri (Yersinia ruckeri); experiment: BLI, biotinylated chimera on streptavidin tips, soluble rOmpF 0.5-2.3 µM, PBS pH 7.4
# T1 construct: also called rOmpF; Y. ruckeri OmpF
# [2] = target: T2, Y. ruckeri OmpF embedded in the outer membrane of E. coli MDS42 ΔompF cells (Yersinia ruckeri); experiment: flow cytometry on E. coli expressing Y. ruckeri OmpF, chimera at 0.1 µM and 1 µM, PBS
# T2 construct: whole, on cells; Cells were fixed with PFA for flow cytometry; also called OmpF Y. ruckeri expressing strain; specific target
# [3] = target: T2, Y. ruckeri OmpF embedded in the outer …; experiment: flow cytometry titration in fresh water
# [4] = target: T3, wild-type E. coli OmpF embedded in the membrane of E. coli MDS42 cells (Escherichia coli, UniProt P02931 23-362); experiment: flow cytometry titration in fresh water
# T3 construct: whole, on cells
# T3 sequence: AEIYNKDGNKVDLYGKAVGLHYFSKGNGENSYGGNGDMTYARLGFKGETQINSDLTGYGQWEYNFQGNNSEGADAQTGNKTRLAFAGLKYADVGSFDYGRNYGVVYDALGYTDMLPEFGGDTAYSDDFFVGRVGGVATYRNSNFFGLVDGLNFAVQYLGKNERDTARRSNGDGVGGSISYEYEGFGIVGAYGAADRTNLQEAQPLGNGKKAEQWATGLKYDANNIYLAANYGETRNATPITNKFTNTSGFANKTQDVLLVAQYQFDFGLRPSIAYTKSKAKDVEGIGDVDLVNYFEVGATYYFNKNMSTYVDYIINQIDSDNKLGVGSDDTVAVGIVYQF
# [5] = target: T2, Y. ruckeri OmpF embedded in the outer …; experiment: flow cytometry titration in PBS, 5 concentrations 0.001-3 µM, normalised
# [6] = target: T3, wild-type E. coli OmpF embedded in the …; experiment: flow cytometry titration in PBS, 5 concentrations 0.001-3 µM, […]
# ovalbumin = target: T4, ovalbumin (UniProt P01012 2-386); experiment: cross-reactivity test, yeast display flow cytometry
# T4 construct: also called ovoalbumin
# T4 sequence (looked up): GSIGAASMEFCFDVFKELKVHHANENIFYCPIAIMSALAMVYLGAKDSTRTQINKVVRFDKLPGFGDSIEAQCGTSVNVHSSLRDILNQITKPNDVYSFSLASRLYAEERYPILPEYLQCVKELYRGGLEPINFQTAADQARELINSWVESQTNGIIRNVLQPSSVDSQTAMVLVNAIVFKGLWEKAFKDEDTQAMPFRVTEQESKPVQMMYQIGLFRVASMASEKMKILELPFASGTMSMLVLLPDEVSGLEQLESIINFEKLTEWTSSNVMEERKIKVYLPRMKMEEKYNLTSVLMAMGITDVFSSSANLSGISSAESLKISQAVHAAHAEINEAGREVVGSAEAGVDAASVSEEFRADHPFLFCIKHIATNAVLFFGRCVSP
# human seroalbumin = target: T5, human seroalbumin (human, UniProt P02768 25-609); experiment: as above
# T5 construct: also called hSA
# T5 sequence (P02768 25-609): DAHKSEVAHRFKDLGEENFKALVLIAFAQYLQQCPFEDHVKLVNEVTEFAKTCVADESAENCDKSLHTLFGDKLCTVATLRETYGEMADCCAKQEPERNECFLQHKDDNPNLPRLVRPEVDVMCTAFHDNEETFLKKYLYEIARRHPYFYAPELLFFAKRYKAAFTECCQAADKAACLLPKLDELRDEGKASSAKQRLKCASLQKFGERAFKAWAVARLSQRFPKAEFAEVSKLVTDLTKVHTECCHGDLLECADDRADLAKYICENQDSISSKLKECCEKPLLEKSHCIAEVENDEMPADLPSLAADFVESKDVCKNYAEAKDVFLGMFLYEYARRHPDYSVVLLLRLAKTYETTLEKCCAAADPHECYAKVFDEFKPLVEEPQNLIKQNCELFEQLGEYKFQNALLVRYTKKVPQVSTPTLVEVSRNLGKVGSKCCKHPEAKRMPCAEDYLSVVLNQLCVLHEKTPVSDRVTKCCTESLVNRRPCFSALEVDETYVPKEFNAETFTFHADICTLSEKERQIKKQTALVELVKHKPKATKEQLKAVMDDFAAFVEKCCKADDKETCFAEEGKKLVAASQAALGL
binder,measurement,setting,value
B1,Kd,[1],119 nM
same,percentage of double positives,[2],> 75%
B2,Kd,[1],26 nM
same,percentage of double positives,[2],> 75%
B3,Kd,[3],140 nM
same,Kd,[4],130 nM
B4,Kd,[3],300 nM
same,Kd,[4],280 nM
same,Kd,[5],75 nM
same,Kd,[6],82 nM
B5,percentage of double positives,[2],> 75%
B6,binding result,ovalbumin,no binding (tested: 1 µM)
same,binding result,human seroalbumin,no binding (tested: 1 µM)
B7,binding result,human seroalbumin,no binding (tested: 1 µM)
